Measured values: IntAct's records for PubMed 22902366

B1: Macrophage colony-stimulating factor 1 (Homo sapiens), P09603 (parent)
chain: MTAPGAAGRCPPTTWLGSLLLLVCLLASRSITEEVSEYCSHMIGSGHLQSLQRLIDSQMETSCQITFEFVDQEQLKDPVCYLKKAFLLVQDIMEDTMRFRDNTPNAIAIVQLQELSLRLKSCFTKDYEEHDKACVRTFYETPLQLLEKVKNVFNETKNLLDKDWNIFSKNCNNSFAECSSQDVVTKPDCNCLYPKAIPSSDPASVSPHQPLAPSMAPVAGLTWEDSEGTEGSSLLPGEQPLHTVDPGSAKQRPPRSTCQSFEPPETPVVKDSTIGGSPQPRPSVGAFNPGMEDILDSAMGTNWVPEEASGEASEIPVPQGTELSPSRPGGGSMQTEPARPSNFLSASSPLPASAKGQQPADVTGTALPRVGPVRPTGQDWNHTPQKTDHPSALLRDPPEPGSPRISSLRPQGLSNPSTLSAQPQLSRSHSSGSVLPLGELEGRRSTRDRRSPAEPEGGPASEGAARPLPRFNSVPLTDTGHERQSEGSFSPQLQESVFHLLVPSVILVLLAVGGLLFYRWRRRSHQEPQRADSPLEQPEGSPLTQDDRQVELPV
B2: Secreted protein BARF1 (Epstein-Barr virus (strain B95-8) (HHV-4)), P03228 (parent)
chain: MARFIAQLLLLASCVAAGQAVTAFLGERVTLTSYWRRVSLGPEIEVSWFKLGPGEEQVLIGRMHHDVIFIEWPFRGFFDIHRSANTFFLVVTAANISHDGNYLCRMKLGETEVTKQEHLSVVKPLTLSVHSERSQFPDFSVLTVTCTVNAFPHPHVQWLMPEGVEPAPTAANGGVMKEKDGSLSVAVDLSLPKPWHLPVTCVGKNDKEEAHGVYVSGYLSQ
partner: B1 chain

Variants of: B1
Conditions: with csf1r_human CSF1R

Row | Variant | effect of a mutation on the interaction
1 | MTAPGAAGRCPPTTWLGSLLLLVCLLASRSITEEVSEYCSAMIGSGALQSLQRLIDSQMETSCQITFEFVDQEQLKDPVCYLKKAFLLVAAIMEDTMRFRDNTPNAIAIVQLQELSLRLKSCFTKDYEEHDKACVRTFYETPLQLLEKVKNVFNETKNLLDKDWNIFSKNCNNSFAECSSQDVVTKPDCNCLYPKAIPSSDPASVSPHQPLAPSMAPVAGLTWEDSEGTEGSSLLPGEQPLHTVDPGSAKQRPPRSTCQSFEPPETPVVKDSTIGGSPQPRPSVGAFNPGMEDILDSAMGTNWVPEEASGEASEIPVPQGTELSPSRPGGGSMQTEPARPSNFLSASSPLPASAKGQQPADVTGTALPRVGPVRPTGQDWNHTPQKTDHPSALLRDPPEPGSPRISSLRPQGLSNPSTLSAQPQLSRSHSSGSVLPLGELEGRRSTRDRRSPAEPEGGPASEGAARPLPRFNSVPLTDTGHERQSEGSFSPQLQESVFHLLVPSVILVLLAVGGLLFYRWRRRSHQEPQRADSPLEQPEGSPLTQDDRQVELPV [H41A;H47A;Q90A;D91A] | decreasing interaction strength

Variants of: B2
Conditions: with csf1_human CSF1, P09603

Row | Variant | effect of a mutation on the interaction
2 | MARFIAQLLLLASCVAAGQAVTAFLGERVTLTSAWAAAALGPEIEVSWFKLGPGEEQVLIGRMHHDVIFIEWPFRGFFDIHRSANTFFLVVTAANISHDGNYLCRMKLGETEVTKQEHLSVVKPLTLSVHSERSQFPDFSVLTVTCTVNAFPHPHVQWLMPEGVEPAPTAANGGVMKEKDGSLSVAVDLSLPKPWHLPVTCVGKNDKEEAHGVYVSGYLSQ [Y34A;R36A;R37A;V38A;S39A] | decreasing interaction strength
3 | MARFIAQLLLLASCVAAGQAVTAFLGERVTLTSAWAAAALGPEIEVSWFKLGPGEEQVLIGRMHHDVIFIEWPFRGFFDIHAAAAAFFLVVTAANISHDGNYLCRMKLGETEVTKQEHLSVVKPLTLSVHSERSQFPDFSVLTVTCTVNAFPHPHVQWLMPEGVEPAPTAANGGVMKEKDGSLSVAVDLSLPKPWHLPVTCVGKNDKEEAHGVYVSGYLSQ [Y34A;R36A;R37A;V38A;S39A;R82A;S83A;N85A;T86A] | decreasing interaction strength
